B1: 1A3 conjugated with pHrodo iFL Red dye (antibody, V domains shown)
VH: QSVKESEGRLVTPGTPLRLTCTVAGYSLSRYHMCWVRQAPGKGLEWIGMIGGSGRTDYASWAKGRFTISKTSTTVDLKITSPTTEDTATYFCSTVYTDSDGDFWGPGTLVTVSS
VL: ELDMTQTPSSKSVPVGGTVTINCQASESVYSNDRLAWFQQKPGQPPKLLIYYASTLASGVPSRFKGSGSGTQFTLTISDLECADAATYYCQSCYDMSSYGVAFGGGTELEIL
modifications: pHrodo iFL Red dye conjugated to the antibody; positions not given
notes: also called 1A3-pHrodo; 1A3 pHrodo
B2: GMF-1A3 rabbit monoclonal IgG antibody (antibody, V domains shown)
VH: QSVKESEGRLVTPGTPLRLTCTVAGYSLSRYHMCWVRQAPGKGLEWIGMIGGSGRTDYASWAKGRFTISKTSTTVDLKITSPTTEDTATYFCSTVYTDSDGDFWGPGTLVTVSS
VL: ELDMTQTPSSKSVPVGGTVTINCQASESVYSNDRLAWFQQKPGQPPKLLIYYASTLASGVPSRFKGSGSGTQFTLTISDLECADAATYYCQSCYDMSSYGVAFGGGTELEIL
notes: also called anti-cleaved-AREG 1A3 antibody; unconjugated 1A3
B3: GMF-3E4 rabbit monoclonal IgG antibody (antibody, V domains shown)
VH: QSVKESEGRLVTPGTPLTLTCTVSGFSLSDYWMSWVRQAPGKGLEWIGIAGYSDNTYYASRAKGRFTISKTSTTVVLKITRPTTEDTATYFCVRDLYGVYSSGTTLWGPGTLVTVSS
VL: ELVMTQTPSPVSAAVGGTVTISCQSSQSVYNNNRLAWFQQKPGQPPKLLIYYASTLASGVSSRFKGSGSGTQFTLIISDVVCDDAATYYCQGYYSGGITGFGGGTEVVVK

Key:
[1] = biological target: T1, cleaved amphiregulin (cell-associated transmembrane stalk left after TACE/ADAM17 cleavage of human AREG) (human, UniProt P15514 188-252); test: live-cell fluorescence imaging of MCF-7 cells with 1A3-pHrodo
T1 construct: Endogenous protein on MCF7 cells and in formalin-fixed human tumor tissue; also called cleaved AREG; cell surface cleaved AREG
T1 sequence: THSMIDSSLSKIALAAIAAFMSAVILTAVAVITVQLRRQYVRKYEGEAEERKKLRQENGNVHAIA
Method: In order to study internalization, 1A3 was conjugated with pHrodo iFL Red dye using pHrodo iFL Red Microscale Protein Labeling Kit (P36014, Thermo Fisher Scientific). MCF7 cells were seeded in 12 mm Nunc Glass Bottom Dish, at a density of 1×10⁵ cells/dish. After allowing the cells to attach overnight, the cells were incubated for 60 min with […] Hoechst dye for nuclei staining and LysoTracker® Green DND-26 (Thermo Fisher Scientific) for lysosomal labeling. The cells were then incubated with 1A3-pHrodo (2 μg/mL) for 20 min at 37° C. After washing the wells with PBS, the cells were supplemented with 1× live-cell imaging solution (Molecular probes, Thermo Fisher Scientific). Fluorescence images were acquired at 30 min intervals for 2.5 h with the Olympus 1X71 inverted fluorescence microscope (Olympus, Shinjuku, Tokyo, Japan). TAPI-2 (20 μM)—pre-treatment was performed overnight, with DMSO serving as a control.

[2] = biological target: T2, peptide representing uncleaved AREG (human); test: ELISA on peptides representing cleaved and uncleaved AREG
T2 construct: also called full length AREG peptide; intact AREG
T2 peptide: SMKTHSMIDSSLSKIAC

[3] = biological target: T1, cleaved amphiregulin (cell-associated …); test: immunohistochemistry on a breast tumor tissue micro-array, 10 µg/mL antibody
Method: A breast disease spectrum tissue micro-array was purchased from US Biomax Inc. (Derwood, Md., USA). The slides were deparaffinized in xylene and rehydrated by serial incubations in graded ethanol and then in water in a Histo-Tek® SL Slide Stainer (Sakura Finetek USA, Inc., Torrance, Calif., USA). Antigen retrieval was performed in a steamer by boiling slides in a container of citrate buffer (pH 6.0) for 20 min, which was then removed for 15 min of cooling on the benchtop. Slides were washed in 1× Wash buffer (Dako Agilent, Santa Clara, Calif., USA) and endogenous peroxidase was quenched by incubating with Dako Dual Endogenous Enzyme Block (S2003) for 10 min. […] Slides were washed four times in 1× Wash buffer, followed by the incubation for 45 min at room temperature in 1:100 dilution of […] immunoglobulins/HRP (Dako, P0160 or ready-to-use goat anti-rabbit HRP labeled polymer (Dako, K4003). The slides were washed twice in 1× Wash buffer and the color was developed with 3,3-diaminobenzidine tetrahydrochloride substrate chromogen system (K3468, DAKO, Santa Clara, Calif., USA). Sections were washed with water and counterstained with hematoxylin, rinsed with water, dehydrated by serial ethanol washes to 100%, cleared and mounted in Permount (Thermo Fisher Scientific). […]

Binder | binding result [1] | binding result [2] | binding result [3]
B1 | binds | – | –
B2 | – | no binding | binds
B3 | – | no binding | –

Reference: patent US20220411532A1 (GUNDERSEN LUTHERAN MEDICAL FOUNDATION, published 2022)
